According to patent US20220220224A1 (Hoffmann-La Roche, published 2022):

How the values were obtained:
[1] = target: T1, recombinant biotinylated monomeric Fc fusion of human Folate Receptor 1 (huFolR1 ECD-AcTev-Fcknob-Avi tag … (human, UniProt P0DOX5 223-449 = IgG part, biotin on the C-terminal Avi tag)); test: SPR ProteOn, Fab analyte on immobilized antigen-Fc
T1 construct: also called huFolR1-Fc; human FolR1-Fc
Experimental: (§1) Immobilization of antigens (ligand): Recombinant antigens were diluted with PBST (10 mM phosphate, 150 mM sodium chloride pH 7.4, 0.005% Tween 20) to 10 μg/ml, then injected at 30 μl/minute in vertical orientation. Injection of analytes: For ‘one-shot kinetics’ measurements, injection direction was changed to horizontal orientation, two-fold dilution series of purified Fab (varying concentration ranges) were injected simultaneously along separate channels 1-5, with association times of 200 s, and dissociation times of 600 s. Buffer (PBST) was injected along the sixth channel to provide an “in-line” blank for referencing. Association rate constants (kₒₙ) and dissociation rate constants (koff) were calculated using a simple one-to-one Langmuir binding model in ProteOn Manager v3.1 software by simultaneously fitting the association and dissociation sensorgrams. The equilibrium dissociation constant (KD) was calculated as the ratio koff/kₒₙ.

[2] = target: T2, recombinant biotinylated monomeric Fc fusion of cynomolgus Folate Receptor 1 (cy FolR1 ECD-AcTev-Fcknob-Avi … (cynomolgus, UniProt P0DOX5 223-449 = IgG part, biotin on the C-terminal Avi tag)); test: SPR ProteOn, Fab analyte on immobilized antigen-Fc
T2 construct: also called cyFolR1-Fc; cyno FolR1
Experimental: as §1

[3] = target: T3, recombinant biotinylated monomeric Fc fusion of human Folate Receptor 2 (hu FolR2 ECD-AcTev-Fcknob-Avi tag … (human, UniProt P0DOX5 223-449 = IgG part, biotin on the C-terminal Avi tag)); test: SPR ProteOn, Fab analyte on immobilized antigen-Fc
T3 construct: also called FolR2-Fc
Experimental: as §1

[4] = target: T4, recombinant biotinylated monomeric Fc fusion of human Folate Receptor 3 (hu FolR3 ECD-AcTev-Fcknob-Avi tag … (human, UniProt P0DOX5 223-449 = IgG part, biotin on the C-terminal Avi tag)); test: SPR ProteOn, Fab analyte on immobilized antigen-Fc
T4 construct: also called FolR3-Fc
Experimental: as §1

[5] = target: T5, recombinant biotinylated monomeric Fc fusion of murine Folate Receptor 1 (mu FolR1 ECD-AcTev-Fcknob-Avitag … (murine, UniProt P0DOX5 223-449 = IgG part, biotin on the C-terminal Avi tag)); test: SPR Biacore, single injection on immobilized antigen-Fc
T5 construct: also called muFolR1-Fc; murine FolR1
Experimental: (§2) Binding of FolR1 binders as IgG or in the T-cell bispecific format to different recombinant folate receptors (human FolR1, 2 and 3, murine FolR1 and cynomolgus FolR1; all as Fc fusions) was assessed by surface plasmon resonance (SPR). All SPR experiments were performed on a Biacore T200 at 25° C. with HBS-EP as running buffer (0.01 M HEPES pH 7.4, 0.15 M NaCl, 3 mM EDTA, 0.005% Surfactant P20, Biacore, Freiburg/Germany).
(§3) First the anti-FolR1 IgGs were analyzed by single injections (Table 1) to characterize their crossreactivity (to human, murine and cyno FolR1) and specificity (to human FolR1, human FolR2, human FolR3). Recombinant biotinylated monomeric Fc fusions of human, cynomolgus and murine Folate Receptor 1 (FolR1-Fc) or human Folate Receptor 2 and 3 (FolR2-Fc, FolR3-Fc) were directly coupled on a SA chip using the standard coupling instruction (Biacore, Freiburg/Germany). The immobilization level was about 300-400 RU. The IgGs were injected for 60 seconds at a concentration of 500 nM.

[6] = target: T3, recombinant biotinylated monomeric Fc …; test: as above
Experimental: as §2, §3

[7] = target: T4, recombinant biotinylated monomeric Fc …; test: as above
Experimental: as §2, §3

[8] = target: T5, recombinant biotinylated monomeric Fc …; test: SPR ProteOn, Fab analyte on immobilized antigen-Fc
Experimental: Immobilization of antigens (ligand): Recombinant antigens were diluted with PBST (10 mM phosphate, 150 mM sodium chloride pH 7.4, 0.005% Tween 20) to 10 μg/ml, then injected at 30 μl/minute in vertical orientation. Injection of analytes: For ‘one-shot kinetics’ measurements, injection direction was changed to horizontal orientation, two-fold dilution series of purified Fab (varying concentration ranges) were injected simultaneously along separate channels 1-5, with association times of 150 or 200 s, and dissociation times of 200 or 600 s, respectively. Buffer (PBST) was injected along the sixth channel to provide an “in-line” blank for referencing. Association rate constants (kₒₙ) and dissociation rate constants (koff) were calculated using a simple one-to-one Langmuir binding model in ProteOn Manager v3.1 software by simultaneously fitting the association and dissociation sensorgrams. The equilibrium dissociation constant (KD) was calculated as the ratio koff/kₒₙ.

| Kd [1] [nM] | Kd [2] [nM] | binding result [3] | binding result [4] | binding result [5] | Binder | further results |
| --- | --- | --- | --- | --- | --- | --- |
| 30.9 | 17.3 | no binding | no binding | – | 15A1 Fab (Fab, V domains shown, bacterial Fab) VH: QVQLVQSGAEVKKPGASVKVSCKASGYTFTSYYMHWVRQAPGQGLEWMGIINPSGGSTSYAQKFQGRVTMTRDTSTSTVYMELSSLRSEDTAVYYCARNYYIGVVTFDYWGQGTLVTVSS VL: QAVVTQEPSLTVSPGGTVTLTCGSSTGAVTTSNYANWVQEKPGQAFRGLIGGTNKRAPGTPARFSGSLLGGKAALTLSGAQPEDEAEYYCALWYSNLWVFGGGTKLTVL | – |
| 21.7 | 18 | no binding | no binding | – | 16A3 Fab (Fab, V domains shown, bacterial Fab) VH: QVQLVQSGAEVKKPGASVKVSCKASGYTFTSYYMHWVRQAPGQGLEWMGIINPSGGSTSYAQKFQGRVTMTRDTSTSTVYMELSSLRSEDTAVYYCARNYYAGVTPFDYWGQGTLVTVSS VL: QAVVTQEPSLTVSPGGTVTLTCGSSTGAVTTSNYANWVQEKPGQAFRGLIGGTNKRAPGTPARFSGSLLGGKAALTLSGAQPEDEAEYYCALWYSNLWVFGGGTKLTVL | – |
| 93.6 | 40.2 | no binding | no binding | – | 18D3 Fab (Fab, V domains shown, bacterial Fab) VH: QVQLVQSGAEVKKPGASVKVSCKASGYTFTSYYMHWVRQAPGQGLEWMGIINPSGGSTSYAQKFQGRVTMTRDTSTSTVYMELSSLRSEDTAVYYCARNYYTGGSSAFDYWGQGTLVTVS VL: QAVVTQEPSLTVSPGGTVTLTCGSSTGAVTTSNYANWVQEKPGQAFRGLIGGTNKRAPGTPARFSGSLLGGKAALTLSGAQPEDEAEYYCALWYSNLWVFGGGTKLTVL | – |
| – | – | – | – | no binding (tested: 500 nM) | 16F12 IgG (antibody, V domains shown, human IgG1) VH: QVQLVQSGAEVKKPGASVKVSCKASGYTFTSYYMHWVRQAPGQGLEWMGIINPSGGSTSYAQKFQGRVTMTRDTSTSTVYMELSSLRSEDTAVYYCARNFTVLRVPFDYWGQGTLVTVSS VL: QAVVTQEPSLTVSPGGTVTLTCGSSTGAVTTSNYANWVQEKPGQAFRGLIGGTNKRAPGTPARFSGSLLGGKAALTLSGAQPEDEAEYYCALWYSNLWVFGGGTKLTVL | binding result [6]: no binding (tested: 500 nM); binding result [7]: no binding (tested: 500 nM) |
| – | – | – | – | no binding (tested: 500 nM) | 21G8 IgG (antibody, V domains shown, human IgG1) VH: not shown VL: QAVVTQEPSLTVSPGGTVTLTCGSSTGAVTTSNYANWVQEKPGQAFRGLIGGTNKRAPGTPARFSGSLLGGKAALTLSGAQPEDEAEYYCALWYSNLWVFGGGTKLTVL | – |
| – | – | no binding | no binding | – | 20G6 Fab (Fab, V domains shown, bacterial Fab) VH: QVQLVQSGAEVKKPGASVKVSCKASGYTFTSYYMHWVRQAPGQGLEWMGIINPSGGSTSYAQKFQGRVTMTRDTSTSTVYMELSSLRSEDTAVYYCARGEWIRYYHFDYWGQGTLVTVSS VL: QAVVTQEPSLTVSPGGTVTLTCGSSTGAVTTSNYANWVQEKPGQAFRGLIGGTNKRAPGTPARFSGSLLGGKAALTLSGAQPEDEAEYYCALWYSNLWVFGGGTKLTVL | binding result [1]: no binding; binding result [2]: no binding |
| – | – | – | – | no binding (tested: 500 nM) | 15B6 IgG (antibody, V domains shown, human IgG1) VH: QVQLVQSGAEVKKPGASVKVSCKASGYTFTSYYMHWVRQAPGQGLEWMGIINPSGGSTSYAQKFQGRVTMTRDTSTSTVYMELSSLRSEDTAVYYCARNYYIGIVPFDYWGQGTLVTVSS VL: QAVVTQEPSLTVSPGGTVTLTCGSSTGAVTTSNYANWVQEKPGQAFRGLIGGTNKRAPGTPARFSGSLLGGKAALTLSGAQPEDEAEYYCALWYSNLWVFGGGTKLTVL | binding result [6]: no binding (tested: 500 nM); binding result [7]: no binding (tested: 500 nM) |
| – | – | no binding | no binding | – | 19H3 Fab (Fab, V domains shown, bacterial Fab) VH: QVQLVQSGAEVKKPGASVKVSCKASGYTFTSYYMHWVRQAPGQGLEWMGIINPSGGSTSYAQKFQGRVTMTRDTSTSTVYMELSSLRSEDTAVYYCARTGWSRWGYMDYWGQGTLVTVSS VL: QAVVTQEPSLTVSPGGTVTLTCGSSTGAVTTSNYANWVQEKPGQAFRGLIGGTNKRAPGTPARFSGSLLGGKAALTLSGAQPEDEAEYYCALWYSNLWVFGGGTKLTVL | binding result [1]: no binding; binding result [2]: no binding |
| 62.6 | 32.1 | no binding | no binding | – | 21D1 Fab (Fab, V domains shown, bacterial Fab) VH: QVQLVQSGAEVKKPGASVKVSCKASGYTFTSYYMHWVRQAPGQGLEWMGIINPSGGSTSYAQKFQGRVTMTRDTSTSTVYMELSSLRSEDTAVYYCARNYYVGVSPFDYWGQGTLVTVSS VL: QAVVTQEPSLTVSPGGTVTLTCGSSTGAVTTSNYANWVQEKPGQAFRGLIGGTNKRAPGTPARFSGSLLGGKAALTLSGAQPEDEAEYYCALWYSNLWVFGGGTKLTVL | – |
| – | – | – | – | no binding (tested: 500 nM) | 5D9 IgG (antibody, V domains shown, human IgG1) VH: QVQLVQSGAEVKKPGASVKVSCKASGYTFTSYYMHWVRQAPGQGLEWMGIINPSGGSTSYAQKFQGRVTMTRDTSTSTVYMELSSLRSEDTAVYYCARSYIDMDYWGQGTLVTVSS VL: EIVLTQSPGTLSLSPGERATLSCRASQSVSSSYLAWYQQKPGQAPRLLIYGASSRATGIPDRFSGSGSGTDFTLTISRLEPEDFAVYYCQQDNWSPTFGQGTKVEIK | – |
| – | – | – | – | no binding (tested: 500 nM) | 6B6 IgG (antibody, V domains shown, human IgG1) VH: QVQLVQSGAEVKKPGASVKVSCKASGYTFTSYYMHWVRQAPGQGLEWMGIINPSGGSTSYAQKFQGRVTMTRDTSTSTVYMELSSLRSEDTAVYYCARSYVDMDYWGQGTLVTVSS VL: EIVLTQSPGTLSLSPGERATLSCRASQSVSSSYLAWYQQKPGQAPRLLIYGASSRATGIPDRFSGSGSGTDFTLTISRLEPEDFAVYYCQQDIWSPTFGQGTKVEIK | – |
| – | – | – | – | – | 11F8 Fab (Fab, V domains shown, bacterial Fab) VH: QVQLVQSGAEVKKPGSSVKVSCKASGGTFSSYAISWVRQAPGQGLEWMGGIIPIFGTANYAQKFQGRVTITADKSTSTAYMELSSLRSEDTAVYYCARAVFYRAWYSFDYWGQGTTVTVSS VL: DIQMTQSPSTLSASVGDRVTITCRASQSISSWLAWYQQKPGKAPKLLIYDASSLESGVPSRFSGSGSGTEFTLTISSLQPDDFATYYCQQYTSPPPTFGQGTKVEIK | Kd [8]: 1200 nM |
